# Laboratory results: CN116769021A
# Read-outs that look alike come from different tables or passages of the source.
# B1: 抗AHSV VP7单克隆抗体1H4 (monoclonal antibody 1H4 against African horse sickness virus VP7 protein) (antibody, V domains shown)
# VH: EVQLVESGGGLVQPGGSLKLSCAASGFTFSRYGMSWVRQTPDKRLELVAIIKNDGRSSYYPDSVKGRFTIYRDNAKNTLYLQMSTLKSEDTAMYHCAYGSSLYWYFDVWGAGTTVTVSS
# VL: DVLMTQTPLSLPVSLGDQASISCRSSQSIVHSNGNTYLEWYLQKPGQSPKLLIYKVSNRFSGVPARFSGSGSGTGFTLKISRVEAEDLGVYYCFQGSHVPPTFGGGTKLEIK
# How the values were obtained:
# [1] = biological target: AHSV VP7重组蛋白 (recombinant African horse sickness virus VP7 protein) (African horse sickness virus)
# [2] = biological target: AHSV VP7重组蛋白 (recombinant African horse sickness virus VP7 protein) (African horse sickness virus); assay: indirect ELISA on coated recombinant VP7 (0.5 ug/mL); 1H4 at 0.5 ug/mL (1:4000)
# [3] = biological target: AHSV VP7重组蛋白 (recombinant African horse sickness virus VP7 protein) (African horse sickness virus); assay: indirect ELISA on coated recombinant VP7 (0.5 ug/mL); 1H4 at 0.25 ug/mL (1:8000)
# [4] = biological target: AHSV VP7重组蛋白 (recombinant African horse sickness virus VP7 protein) (African horse sickness virus); assay: indirect ELISA on coated recombinant VP7 (0.5 ug/mL); 1H4 at 1 ug/mL (1:2000)
# [5] = biological target: AHSV VP7重组蛋白 (recombinant African horse sickness virus VP7 protein) (African horse sickness virus); remark: listed apart in the source
# [6] = biological target: AHSV VP7重组蛋白 (recombinant African horse sickness virus VP7 protein) (African horse sickness virus); assay: indirect ELISA on coated recombinant VP7; end-point titer by P/N > 2.1
Molecule,OD450 [1] [OD450],OD450 [2] [OD450],OD450 [3] [OD450],OD450 [4] [OD450],OD450 [5] [OD450],"效价 (ELISA titer, P/N > 2.1) (dilution factor (1:x)) [6]",效价对应的稀释浓度 (antibody concentration at the end-point titer) [6] [ng/mL]
阴性抗体 (negative antibody),0.0378,–,–,–,–,–,–
B1,–,2.87,2.93,4.09,3.58,1.02e+06,1.95
